# Data: PMC10072977 (Biochemical and Biophysical Research Communications, 2023)
# B1: rabbit monoclonal antibody (RmAb) 9H1 (antibody, V domains shown)
# VH: QSVEESGGRLVTPGTPLTLTCTVSGFSLSRYAMSWVRQAPGKGLEWIGIIVDSGHTAYASWAKGRFTISRTSTTVDLKMTSLTTEDTATYFCARETGGGAFYVFEFWGPGTVVTVSS
# VL: QVLTQTPSSVSAAVGGTVTINCQASEDIYDNLVWYQQKPGQPPKLLIYDASTLAFGVSSRFRGSGSGTHFTLTMRDVQCDDAATYYCQGEFSCSSGDCTAFGGGTEVVVK
# Molecular target: biotinylated SARS-CoV-2 WT RBD (Kactus Biosystems, CoV-VM4BDB) (SARS-CoV-2, UniProt P0DTC2, biotin)
# Assay: ELISA
binder,measurement,value
B1,binding result,binds
